Source: patent US20060147463A1

Experiments:
alcohol dehydrogenase = test: cell-based or functional assay
[1] = molecular target: carboxy-terminal truncated Hsp20 (Babesia bovis) (Babesia bovis); test: size exclusion FPLC (Superose 6) (self-association)

## His-tagged Hsp20 from Babesia bovis (full length)
Alcohol dehydrogenase
  molar ratio of greatest reduction in light scattering at time infinity (molar ratio Hsp20 to ADH): 2
  reduction in light scattering of ADH at 58° C., 60 minutes, molar ratio 2:1 Hsp20:ADH: 2.3 fold

## carboxy-terminal truncated Hsp20 (Babesia bovis)
[1]
  percent of protein as dimer: 42%
